# Laboratory results: patent US20050239730A1, “Plasmodium falciparum erythrocyte binding protein baebl for use as a vaccine” (priority 2001, published 2005)
# B1: EBA-175: P. falciparum receptor that binds sialic acid and the peptide backbone of glycophorin A on erythrocytes (protein)
# chain: ARNEYDIKENEKFLDVYKEKFNELDKKKYGNVQKTDKKIFTFIENKLDILNNSKFNKRWKSYGTPDNIDKNMSLINKHNNEEMFNNNYQSFLSTSSLIKQNKYVPINAVRVSRILSFLDSRINNGRNTSSNNEVLSNCREKRKGMKWDCKKKNDRSNYVCIPDRRIQLCIVNLSIIKTYTKETMKDHFIEASKKESQLLLKKNDNKYNSKFCNDLKNSFLDYGHLAMGNDMDFGGYSTKAENKIQEVFKGAHGEISEHKIKNFRKEWWNEFREKLWEAMLSEHKNNINNCKNIPQEELQITQWIKEWHGEFLLERDNRSKLPKSKCKNNTLYEACEKECIDPCMKYRDWIIRSKFEWHTLSKEYETQKVPKENAENYLIKISENKNDAKVSLLLNNCDAEYSKYCDCKHTTTLVKSVLNGNDNTIKEKREHIDLDDFSKFGCDKNSVDTNTKVWECKNPYILSTKDVCVPPRRQELCLGNIDRIYDKNLLMIKEHILAIAIYESRILKRKYKNKDDKEVCKIINKTFADIRDIIGGTDYWNDLSNRKLVGKINTNSKYVHRNKKNDKLFRDEWWKVIKKDVWNVISWVFKDKTVCKEDDIENIPQFFRWFSEWGDDYCQDKTKMIETLKVECKEKPCEDDNCKSKCNSYKEWISKKKEEYNKQAKQYQEYQKGNNYKMYSEFKSIKPEVYLKKYSEKCSNLNFEDEFKEELHSDYKNKCTMCPEVKDVPISIIRNNEQTSQEAVPEENTEIAHRTETPSISEGPKGNEQKERDDDSLSKISVSPENSRPETDAKDTSNLLKLKGDVDISMPKAVIGSSPNDNINVTEQGDNISGVNSKPLSDDVRPDKKELEDQNSDESEETVVNHISKSPSINNGDDSGSGSATVSESSSSNTGLSIDDDRNGDTFVRTQDTANTEDVIRKENADKDEDEKGADEERHSTSESLSSPEEKMLTDNEGGNSLNHEEVKEHTSNSDNVQQSGGIVNMNVEKELKDTLENPSSSLDEGKAHEELSEPNLSSDQDMSNTPGPLDNTSEETTERISNNEYKVNEREDERTLTKEYEDIVLKSHMNRESDDGELYDENSDLSTVNDESEDAEAKMKGNDTSEMSHNSSQHIESDQQKNDMKTVGDLGTTHVQNEISVPVTGEIDEKLRESKESKIHKAEEERLSHTDIHKINPEDRNSNTLHLKDIRNEENERHLTNQNINISQERDLQKHGFHTMNNLHGDGVSERSQINHSHHGNRQDRGGNSGNVLNMRSNNNNFNNIPSRYNLYDKKLDLDLYENRNDSTTKELIKKLAEINKCENEISVKYCDHMIHEEIPLKTCTKEKTRNLCCAVSDYCMSYFTYDSEEYYNCTKREFDDPSYTCFRKEAFSSMIFKFLITNKIYYYFYTYKTAKVTIKKINFSLIFFFFFSF
# B2: BAEBL: Plasmodium falciparum erythrocyte binding protein of the DBL-EBP family (SEQ ID NO: 2); here metabolically labeled protein from Dd2/Nm culture supernatant (protein, listed as Plasmodium falciparum)
# chain: MKGYFNIYFLIPLIFLYNVIRINESIIGRTLYNRQDESSDISRVNSPELNNNHKTNIYDSDYEDVNNKLINSFVENKSVKKKRSLSFINNKTKSYDIIPPSYSYRNDKFNSLSENEDNSGNTNSNNFANTSEISIGKDNKQYTFIQKRTHLFACGIKRKSIKWICRENSEKITVCVPDRKIQLCVANFLNSRLETMEKFKEIFLISVNTEAKLLYNKNEGKDPSIFCNELRNSFSDFRSSFIGDDMDFGGNTDRVKGYINTKFSDYYKEKNVEKLNNIKKEWWEKNKANLWNHMIVNHKGNISKECAIIPAEEPQINLWIKEWNENFLMEKKRLFLNIKDKCVENKKYEACFGGCRLPCSSYTSFMKKSKTQMEVLTNLYKKKNSGVDKNNFLNDLFKKNNKNDLDDFFKNEKEYDDLCDCRYTATIIKSFLNGPAKNDVDIASQINVNDLRGFGCNYKSNNEKSWNCTGTFTNKFPGTCEPPRRQTLCLGRTYLLHRGHEEDYKEHLLGASIYEAQLLKYKYKEKDENALCSIIQNSYADLADIIKGSDIIKDYYGKKMEENLNKVNKDKKRNEESLKIFREKWWDENKENVWKVMSAVLKNKETCKDYDKFQKIPQFLRWFKEWGDDFCEKRKEKIYSFESFKVECKKKDCDENTCKNKCSEYKKWIDLKKSEYEKQVDKYTKDKNKKMYDNIDEVKNKEANVYLKEKSKECKDVNFDDKIFNESPNEYEDMCKKCDEIKYLNEIKYPKTKHDIYDIDTFSDTFGDGTPISINANINEQQSGKDTSNTGNSETSDSPVSHEPESDAAINVEKLSGDESSSETRGILDINDPSVTNNVNEVHDASNTQGSVSNTSDITNGHSESSLNRTTNAQDIKIGRSGNEQSDNQENSSHSSDNSGSLTIGQVPSEDNTQNTYDSQNPHRDTPNALASLPSDDKINEIEGFDSSRDSENGRGDTTSNTHDVRRTNIVSERRVNSHDFIRNGMANNNAHHQYITQIENNGIIRGQEESAGNSVNYKDNPKRSNFSSENDHKKNIQEYNSRDTKRVREEIIKLSKQNKCNNEYSMEYCTYSDERNSSPGPCSREERKKLCCQISDYCLKYFNFYSIEYYNCIKSEIKSPEYKCFKSEGQSSIPYFAAGGILVVIVLLLSSASRMGKSNEEYDIGESNIEATFEENNYLNKLSRIFNQEVQETNISDYSEYNYNEKNMY
# modifications: metabolic label
# notes: here metabolically labeled protein from Dd2/Nm culture supernatant
# What was measured:
# [1] = target: Gerbich human erythrocytes (exon 3 deletion of glycophorin C/D: shortened glycophorin C, absent glycophorin D); test: region II on COS cells, erythrocyte-binding assay
# [2] = target: normal human erythrocytes (untreated); test: region II on COS cells, erythrocyte-binding assay
# human erythrocytes = test: Modified erythrocyte binding assay: absorption/elution of metabolically labeled parasite proteins followed by immunoprecipitation; details: for Binding to En(a-) erythrocytes: which lack glycophorin A; for Binding to S-s-U- erythrocytes: S-s-U- erythrocytes that lacked glycophorin B; for Elution from Gerbich and normal erythrocytes: fresh Gerbich erythrocytes vs normal erythrocytes; for Absorption from culture supernatant by Gerbich cells compared with normal erythrocytes: fresh blood from a person with the Gerbich mutation, two separate experiments; for Binding to neuraminidase-treated human erythrocytes / Binding to trypsin-treated human erythrocytes: Dd2/Nm culture supernatant; for Binding to Gerbich erythrocytes: pellet-frozen Gerbich (-2, -3, -4) erythrocytes; for Binding to Yus erythrocytes: pellet-frozen Yus (-2, -3, -4) erythrocytes
# From the text: We have developed a new assay for measuring binding of BAEBL to erythrocytes. Previously, EBA-175 was identified in parasite proteins bound and eluted from human erythrocytes. Its identification was based on the fact that it was the most abundant and the highest molecular weight protein eluted from these erythrocytes. Lower molecular weight proteins may be proteolytic fragments of EBA-175 or products of different genes. To positively identify BAEBL, we immunoprecipitated BAEBL from proteins eluted from erythrocytes with anti-region II and anti-region VI.
# We also modified the protocol in that we identified proteins removed from the supernatant by erythrocyte absorption. We determined the different quantities of erythrocytes required to remove BAEBL from the parasite supernatant. […] The protein was largely removed by absorbing twice with 50 μl of packed erythrocytes for some culture supernatants and by only one absorbtion with 50 μl for other supernatants. Therefore, on some samples, we absorbed with 25 μl, 50 μl once, and 50 μl twice for comparison between normal erythrocytes and mutant erythrocytes or enzyme-treated erythrocytes. The protein was also eluted from the first 50 μl of packed erythrocytes used for absorption.
# Blood was collected in 10% citrate-phosphate-dextrose (vol/vol) and stored for up to 4 weeks at 4° C. At the time of study, the erythrocytes were washed three times in incomplete media (RPMI-1640; Life Technologies, Rockville, Md.) with 25 mM HEPES and 0.36 mM hypoxanthine (Sigma, St. Louis, Mo.). For neuraminidase treatment, 5.5 ml of a 5% (vol/vol) suspension of the washed human erythrocytes in incomplete media were incubated twice with 3 milliunits of neuraminidase (Vibrio cholerae; CalBiochem, La Jolla, Calif.) for 2 hr at 37° C. each time. For trypsin treatment, washed human erythrocytes were incubated with 1 mg/ml of tosyl-phenylalanine-chloromethyl-ketone-treated trypsin (Sigma) for 2 hr at 37° C. After trypsin treatment, the cells were washed once in incomplete medium and incubated with 2 mg/ml soybean trypsin inhibitor (Sigma) for 10 min at room temperature. The cells were washed twice before use in a study.
# The glycophorin A and glycophorin B null erythrocytes [En(a-) and S-s-U-, respectively and the glycophorin D null/glycophorin C modified erythrocytes (Gerbich cells) were frozen within a few days of receipt and thawed by the Red Cross method (Mallory, D. ed. 1993 Immunohematology Methods and Procedures American Red Cross, National Reference Laboratory, Rockville, Md., pp. 125-1-125-2). Blood from a Gerbich donor was collected in 10% (vol/vol) anticoagulant citrate-phosphate-dextrose.
# Other glycophorin C/D mutant cells (Leach, Gerbich, and Yus cells) had been stored in liquid nitrogen as frozen pellets (Judd, W. J. 1994 in: Methods in Immunohematology Montgomery Scientific Publications Durham, N.C., pp. 188-190) and thawed directly into PBS at 37° C.
# Soluble, metabolically labeled parasite proteins were obtained from culture supernatant of schizont-infected erythrocytes that released merozoites in the absence of uninfected erythrocytes. The parasites were left to lyse and release proteins into the culture supernatant. The Dd2/Nm clone of P. falciparum was cultured as previously described (Kaneko, O. et al. 2000 Mol Biochem Parasitol 110: […]) with the following exceptions. Schizont-infected erythrocytes (5×10^7 per ml of culture medium) were used during the metabolic labeling. The culture supernatant was ultracentrifuged in a Beckman Optima TLX Ultracentrifuge (Beckman, Fullerton, Calif.) at 40,000 rpm (98,600×g) for 10 min at 4° C. before storage at −70° C.
# Proteins in the supernatant and in the diluted eluate were immunoprecipitated as previously described (Kaneko, O. et al. 2000 Mol Biochem Parasitol 110: 135-146) with the following exceptions. […]
# [3] = glycophorin C/D null erythrocytes of the Leach phenotype, preliminary experiments
Molecule,"percentage of binding to normal, untreated RBC [1]","COS cells with five or more attached RBC, total per coverslip (COS cells per coverslip) [2]",Binding to En(a-) erythrocytes (human erythrocytes),Binding to S-s-U- erythrocytes (human erythrocytes),Elution from Gerbich and normal erythrocytes (human erythrocytes),Absorption from culture supernatant by Gerbich cells compared with normal erythrocytes (human erythrocytes),Binding to neuraminidase-treated human erythrocytes (human erythrocytes),Binding to Gerbich erythrocytes (human erythrocytes),Binding to Yus erythrocytes (human erythrocytes),Binding to trypsin-treated human erythrocytes (human erythrocytes),Detection in eluate of Leach erythrocytes (human erythrocytes; [3]),Detection in parasite supernatant absorbed with Leach erythrocytes (human erythrocytes; [3]),Elution from neuraminidase-treated normal erythrocytes (human erythrocytes; neuraminidase-treated normal erythrocytes)
"BAEBL region II variant VSTK, expressed on the surface of COS cells (ligand)",0.9%,65,,,,,,,,,,,
B1,,,failed to bind,bound,eluted from both Gerbich and normal erythrocytes,bound equally well to Gerbich and normal erythrocytes,failure of neuraminidase-and trypsin-treated erythrocytes to bind,bound normally,bound normally,failure of neuraminidase-and trypsin-treated erythrocytes to bind,,,
B2,,,bound to these erythrocytes in a similar manner as to normal erythrocytes,bound,eluted from normal but not Gerbich erythrocytes,required twice as many Gerbich cells,eliminated the binding,reduced binding,reduced binding,eliminated the binding,never detected,not detected,did not elute
